Results published in paper PMC7608914.

Legend:
[1] = target: preformed complex PARP2-QFRD_Alexa488 + Nuc165 (human) (UniProt Q9UGN5); experiment: FRET or BRET; Alexa647-labeled HPF1 (acceptor) titrated from 18.5 μM to 0 μM into 1 μM Alexa488-labeled PARP2 (donor) alone or into the preformed PARP2–Nuc165 complex (1 μM / 100 nM); 50 mM Tris-HCl pH 8, 50 mM NaCl, 1 mM MgCl2, 0.1 mM EDTA, 0.1 mM TCEP, 0.01% NP-40; Hill model
[2] = target: preformed complex PARP2-WT_Alexa488 + Nuc165 (human) (UniProt Q9UGN5); experiment: as above

Alexa647-labeled HPF1, sequence (Q9NWY4 whole entry): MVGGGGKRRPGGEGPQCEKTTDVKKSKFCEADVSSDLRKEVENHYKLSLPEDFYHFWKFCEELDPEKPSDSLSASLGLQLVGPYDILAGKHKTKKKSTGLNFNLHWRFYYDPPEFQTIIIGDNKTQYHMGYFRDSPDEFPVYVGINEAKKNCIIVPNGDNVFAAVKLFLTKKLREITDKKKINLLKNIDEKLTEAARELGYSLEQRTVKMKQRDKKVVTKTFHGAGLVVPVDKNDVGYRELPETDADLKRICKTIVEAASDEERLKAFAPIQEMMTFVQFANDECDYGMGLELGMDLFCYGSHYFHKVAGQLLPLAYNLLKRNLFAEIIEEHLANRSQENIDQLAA

Alexa647-labeled HPF1 (from UniProt Q9NWY4 1-346) (natural protein)
Kd [1]: 0.702 µM | Kd [2]: 0.279 µM
